In patent publication US20130059772A1, “Use of Repeat Sequence Protein Polymers in Personal Care Compositions” (DANISCO US INC., priority 2003, published 2013):
“And” between values parts separate entries of the source, which are not always exact repeats. Equal values may be shown once.

How the values were obtained:
[1] = Tensile mechanical properties of films (INSTRON Model 5564); assay type: physicochemical
Method: In this Example, experiments performed to determine tensile mechanical properties of SELP47K (Example 1 and 2) are described. Samples of SELP47K were prepared by freeze-drying purified SELP47K solution. The subsequent powder was re-dissolved in water to a solids concentration of approximately 5, 10 or 20%. These solutions were then mixed with plasticizers to an effective concentration of 1-3%. Plasticizers included in this study were polyethylene glycol 200, glycerin, and triethanolamine. Eleven milliliters of these solutions were poured into a large (6 inch square) polyethylene weigh boats and the solutions were allowed to dry either in an oven at 37° C. or room temperature for 1 to 3 days. Subsequent films were successfully peeled from the weigh boat with a spatula without any damage to the polymer film.
The films were then cut into tensile specimens using a very sharp fabric cutting wheel. The specimens were approximately 6 cm long and 2.5 cm wide. The gauge length for these samples (length of sample between tensile testing clamps) was set to 3 cm and the thickness of the sample was measured at 5 points along the gauge length using a digital thickness coating instrument. The thickness of the samples was recorded as the average of the 5 points and varied from 46.4 to 188.2 microns. Both the sample width and sample thickness were entered into an Instron software program (Merlin) to enable it to calculate the tensile strength and tensile modulus.
The samples were loaded into the jaws of an INSTRON® Model 5564 apparatus making sure the gauge length was always set to 3 cm and that the sample was not under any static load or stress. […] The results of the stress-strain measurements can be seen for four of the samples in FIG. 1. The elongation % of SELP47K was determined to be 8.4 for 20% SELP47K solution film made at room temperature (RM). The tensile strength was determined to be 65.9 megapascals (MPa), and the tensile modulus was determined to be 1716.50 MPa. The results of plastisizer-SELP47K films reveal strong correlation between concentration and mechanical properties measured. For 3% PEG200 containing SELP47K, the films elongation % reached 541.

facial skin = assay: Skin efficacy study: Chromameter a* (skin redness); assay type: in vivo, human
From the text: Eleven impaneled subjects (age 35-70 years) showing clear signs of facial skin aging were provided with a non-moisturizing soap, (AVEENO®), one week prior to the study and were instructed to use the provided soap to wash the face and were required to refrain from excessive UV exposure. After a seven-day conditioning phase, subjects were acclimated to the ambient temperature and humidity for thirty minutes. One side of the face of each subject was designated as the measurement side by random selection by computer. After 30-minute acclimation period, baseline digital photographs were taken, and instrumental measurements, skin replica samples and visual evaluations were made. Photographs were taken, with a Canfield Scientific Camera, of the full face, the periorbital area, and the temporal side of eye. Chromameter (Model CR300, Minolta) measurements were taken from the periorbital area directly under the eye (Chardon et al., Int. J. Cosmet. Sci., 13:191-208 [1991]). Silflo replicas (CuDerm Corporation, Dallas, Tx) were made from the periorbital area adjacent to the temporal side of the eye (Grove et al., J. Am. Acad. Dermatol., 21:631-637 [1998]; and Sun et al 1997 IFSCC Conference, Mexico). […]
Chromometer values for L*, a*, and b* were read and total color value, E, was calculated for each subject. […]

[2] = Cloud point determination (turbidity at 300 nm, 20-80° C.); assay type: physicochemical
Method: The cloud point of SELP47K was determined by first preparing 0.1% and 1% solutions of polydispersed SELP 47K (Example 2) in three different buffers: 50 mM acetate pH 5; 50 mM Tris pH 7; 50 mM Tris pH 9. A 0.5 M NaCl salt solution was prepared in water and salt containing solutions were prepared using this stock solution. Samples were placed in quartz cuvettes and the cloud point determination was carried out using a Cary 300 spectrophotometer equipped with a thermal program and multiple cuvettes configuration. Turbidity measurements were made at 300 nm and the temperature was varied from 20-80° C.

[3] = Example 1 Material [GC2596-26-A], film from 05% sol., 37 C.
[4] = Example 1 Material [GC2596-26-A], film from 05% sol., RM
[5] = Example 1 Material [GC2596-26-A], film from 10% sol., 37 C.
[6] = Example 1 Material [GC2596-26-A], film from 10% sol., RM
[7] = Example 1 Material [GC2596-26-A], film from 20% sol., 37 C.
[8] = Example 1 Material [GC2596-26-A], film from 20% sol., RM
[9] = Example 2 Material [GC2596-26-B], film from 10% sol., 37 C.

SELP47K: silk-elastin repeat sequence protein copolymer, head-[(GAGAGS)2(GVGVP)3GKGVP(GVGP)4(GAGAGS)2]13-tail (SEQ ID NO:19), 886 amino acids
Tensile Strain [1, 3]: 2.6%
Tensile Strength [1, 3]: 19.83 MPA
Tensile Strain [1, 4]: 2.4%
Tensile Strength [1, 4]: 21.43 MPA
Tensile Strain [1, 5]: 3.6%
Tensile Strength [1, 5]: 62.06 MPA
Tensile Strain [1, 6]: 3.5%
Tensile Strength [1, 6]: 62.98 MPA
Tensile Strain [1, 7]: 8.6%
Tensile Strength [1, 7]: 74.14 MPA
Tensile Strain (elongation %) [1, 8]: 8.4%
Tensile Strength [1, 8]: 65.9 MPA and 65.90 MPA
Tensile Strain [1, 9]: 6.98%
Tensile Strength [1, 9]: 39.34 MPA
tensile modulus ([1]; film from 20% SELP47K solution made at room temperature (RM)): 1716.50 MPa
Chromameter a* Score, Mean (facial skin; 5% aqueous solution applied once to face, 30 Minutes Post, baseline mean 11.05): 10.39
decrease in average a* value (redness of the skin) (facial skin; 5% aqueous solution, 30 minutes post vs baseline, p=0.024): 6%
cloud point ([2]; 0.1% solution, 0.5 M NaCl, irrespective of pH): 50 °C
cloud point ([2]; 0.1% solution, pH 5): remained soluble even at 80 °C
cloud point ([2]; 0.1% solution, pH 9): 60 °C
cloud point ([2]; 1% solution in water): 70 °C
cloud point ([2]; 1% solution, 0.5 M salt, irrespective of pH): 55 °C
cloud point ([2]; 1% solution, 5-9 pH range): ~65 °C
cloud point ([2]; 1% solution, pH 5 buffer, 0.2 M salt): 65 °C
cloud point ([2]; 1% solution, pH 5 buffer, 0.5 M salt): below 60 °C
cloud point ([2]; 1% solution, pH 5 buffer, no salt): 75 °C
